Measurements from article PMC4022456, “Phosphorylation of a WRKY Transcription Factor by MAPKs Is Required for Pollen Development and Function in Arabidopsis”.

Target: WRKY34 (WT) (Arabidopsis thaliana, UniProt O65590 1-568)
Assay: EMSA; competed by 250-fold unlabeled W-box tested; 20 mM HEPES pH 7.9, 50 mM KCl, 0.5 mM DTT, 0.1 mM EDTA, 0.1 ug/uL herring sperm DNA, room temperature 30 min; 1 ug protein, 2 pmol probe; 5% native PAGE, 0.5x TBE
Settings: protein: recombinant; label: 32P 5' end; blunt

Sequence of WRKY34 (WT) (O65590 whole entry): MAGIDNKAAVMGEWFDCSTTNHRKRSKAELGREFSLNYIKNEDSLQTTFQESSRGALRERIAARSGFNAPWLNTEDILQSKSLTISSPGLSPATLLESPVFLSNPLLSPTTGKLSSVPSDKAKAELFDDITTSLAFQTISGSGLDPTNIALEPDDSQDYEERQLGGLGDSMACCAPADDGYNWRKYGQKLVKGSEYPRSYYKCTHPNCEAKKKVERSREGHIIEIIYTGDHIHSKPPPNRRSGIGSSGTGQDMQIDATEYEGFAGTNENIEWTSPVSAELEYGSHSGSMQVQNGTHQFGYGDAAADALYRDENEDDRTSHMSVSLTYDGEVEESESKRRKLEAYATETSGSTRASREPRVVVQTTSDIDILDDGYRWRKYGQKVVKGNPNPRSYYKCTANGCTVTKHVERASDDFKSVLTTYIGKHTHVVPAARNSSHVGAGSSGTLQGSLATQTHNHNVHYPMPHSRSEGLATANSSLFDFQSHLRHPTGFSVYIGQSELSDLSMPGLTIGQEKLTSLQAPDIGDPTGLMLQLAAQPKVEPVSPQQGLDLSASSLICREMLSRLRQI

B1: W-box probe (three W boxes) (dsDNA)
DNA 1: CGTTGACCGTTGACCGAGTTGACTTTTTA
DNA 2: TAAAAAGTCAACTCGGTCAACGGTCAACG
  binding result: binds
